In patent publication EP4803149A2 (Lyvgen Biopharma Holdings Limited, dated 2026):

B1: Ly1966 (multi-specific antibody)
chain 1: QVQLQQSGAELVRPGSSVKISCKASGYAFSSYWMNWVKQRPGQGLEWIGQIWPGDGDTNYNGKFKGKATLTADESSSTAYMQLSSLASEDSAVYFCARRETTTVGRYYYAMDYWGQGTTVTVSSASTKGPSVFPLAPSSKSTSGGTAALGCLVKDYFPEPVTVSWNSGALTSGVHTFPAVLQSSGLYSLSSVVTVPSSSLGTQTYICNVNHKPSNTKVDKKVEPKSCGGGGSGGGGSGGGGSGGGGSEVQLVESGGGLVQPGGSLRLSCAASGFTFSTYAMNWVRQAPGKGLEWVGRIRSKYNNYATYYADSVKGRFTISRDDSKNSLYLQMNSLKTEDTAVYYCVRHGNFGNSYVSWFAYWGQGTLVTVSSGGGGSDKTHTCPPCPAPEAAGPSVFLFPPKPKDTLMISRTPEVTCVVVDVSHEDPEVKFNWYVDGVEVHNAKTKPREEQYNSTYRVVSVLTVLHQDWLNGKEYKCKVSNKALPAPIEKTISKAKGQPREPQVYTLPPSREEMTKNQVSLWCLVKGFYPSDIAVEWESNGQPENNYKTTPPVLDSDGSFFLYSKLTVDKSRWQQGNVFSCSVMHEALHNHYTQKSLSLSPGGGGGSGGGGSGGGGSGGGGSQVQLVQSGAEVKKPGASVKVSCKASGYTFAGFEMHWVRQAPGQGLEWMGAIDPKTGGTDYNQKFKDRVTMTRDTSISTAYMELSRLRSDDTAVYYCARDLGYFDVWGQGTLVTVSS
chain 2: QVQLQQSGAELVRPGSSVKISCKASGYAFSSYWMNWVKQRPGQGLEWIGQIWPGDGDTNYNGKFKGKATLTADESSSTAYMQLSSLASEDSAVYFCARRETTTVGRYYYAMDYWGQGTTVTVSSASTKGPSVFPLAPSSKSTSGGTAALGCLVKDYFPEPVTVSWNSGALTSGVHTFPAVLQSSGLYSLSSVVTVPSSSLGTQTYICNVNHKPSNTKVDKKVEPKSCGGGGSGGGGSGGGGSGGGGSQAVVTQEPSLTVSPGGTVTLTCRSSTGAVTTSNYANWVQQKPGQAPRGLIGGTNKRAPWTPARFSGSLLGGKAALTITGAQAEDEADYYCALWYSNLWVFGGGTKLTVLGGGGSDKTHTCPPCPAPEAAGPSVFLFPPKPKDTLMISRTPEVTCVVVDVSHEDPEVKFNWYVDGVEVHNAKTKPREEQYNSTYRVVSVLTVLHQDWLNGKEYKCKVSNKALPAPIEKTISKAKGQPREPQVYTLPPSREEMTKNQVSLSCAVKGFYPSDIAVEWESNGQPENNYKTTPPVLDSDGSFFLVSKLTVDKSRWQQGNVFSCSVMHEALHNRFTQKSLSLSPGGGGGSGGGGSGGGGSGGGGSDIQMTQSPSSLSASVGDRVTITCRASQDIRSNLNWYQQKPGGAVKLLIYYTSRLHSGVPSRFSGSGSGTDYTLTISSLQPEDFATYFCQQSEKLPRTFGGGTKVEIR
chain 3: not shown
notes: CD19/CD3/CD137
B2: Ly1967 (multi-specific antibody)
chain 1: QVQLQQSGAELVRPGSSVKISCKASGYAFSSYWMNWVKQRPGQGLEWIGQIWPGDGDTNYNGKFKGKATLTADESSSTAYMQLSSLASEDSAVYFCARRETTTVGRYYYAMDYWGQGTTVTVSSASTKGPSVFPLAPSSKSTSGGTAALGCLVKDYFPEPVTVSWNSGALTSGVHTFPAVLQSSGLYSLSSVVTVPSSSLGTQTYICNVNHKPSNTKVDKKVEPKSCGGGGSGGGGSGGGGSGGGGSEVQLVESGGGLVQPGGSLRLSCAASGFTFSTYAMNWVRQAPGKGLEWVGRIRSKYNNYATYYADSVKGRFTISRDDSKNSLYLQMNSLKTEDTAVYYCVRHGNFGNSYVSWFAYWGQGTLVTVSSGGGGSDKTHTCPPCPAPEAAGPSVFLFPPKPKDTLMISRTPEVTCVVVDVSHEDPEVKFNWYVDGVEVHNAKTKPREEQYNSTYRVVSVLTVLHQDWLNGKEYKCKVSNKALPAPIEKTISKAKGQPREPQVYTLPPSREEMTKNQVSLWCLVKGFYPSDIAVEWESNGQPENNYKTTPPVLDSDGSFFLYSKLTVDKSRWQQGNVFSCSVMHEALHNHYTQKSLSLSPGGGGGSGGGGSGGGGSGGGGSQVQLVQSGAEVKKPGASVKVSCKASGYTFAGFEMHWVRQAPGQGLEWMGAIDPKTGGTDYNQKFKDRVTMTRDTSISTAYMELSRLRSDDTAVYYCARDLGYFDVWGQGTLVTVSS
chain 2: QVQLQQSGAELVRPGSSVKISCKASGYAFSSYWMNWVKQRPGQGLEWIGQIWPGDGDTNYNGKFKGKATLTADESSSTAYMQLSSLASEDSAVYFCARRETTTVGRYYYAMDYWGQGTTVTVSSASTKGPSVFPLAPSSKSTSGGTAALGCLVKDYFPEPVTVSWNSGALTSGVHTFPAVLQSSGLYSLSSVVTVPSSSLGTQTYICNVNHKPSNTKVDKKVEPKSCGGGGSGGGGSGGGGSGGGGSQAVVTQEPSLTVSPGGTVTLTCRSSTGAVTTSNYANWVQQKPGQAPRGLIGGTNKRAPWTPARFSGSLLGGKAALTITGAQAEDEADYYCALWYSNLWVFGGGTKLTVLGGGGSDKTHTCPPCPAPEAAGPSVFLFPPKPKDTLMISRTPEVTCVVVDVSHEDPEVKFNWYVDGVEVHNAKTKPREEQYNSTYRVVSVLTVLHQDWLNGKEYKCKVSNKALPAPIEKTISKAKGQPREPQVYTLPPSREEMTKNQVSLSCAVKGFYPSDIAVEWESNGQPENNYKTTPPVLDSDGSFFLVSKLTVDKSRWQQGNVFSCSVMHEALHNHYTQKSLSLSPGGGGGSGGGGSGGGGSGGGGSDIQMTQSPSSLSASVGDRVTITCRASQDIRSNLNWYQQKPGGAVKLLIYYTSRLHSGVPSRFSGSGSGTDYTLTISSLQPEDFATYFCQQSEKLPRTFGGGTKVEIR
chain 3: not shown
notes: CD19/CD3/CD137 multi-specific

Molecular target: CD3 (human)
Test: ELISA or FCM (as in Example 2)

Row | Binder | EC50
1 | B1 | 0.348 µg/mL
2 | B2 | 1.56 µg/mL
